Test results from publication PMC7064531.

Target: hRpn10^322–366 peptide with Y326 phosphorylated (human) (UniProt P55036)
Experiment: ITC; 25 °C, MicroCal iTC200; E6AP AZUL injected into hRpn10 305-377 (0.0405 mM) or hRpn10 322-366 peptides (0.01 mM) in the cell; 10 mM MOPS pH 6.5, 50 mM NaCl, 5 mM DTT, 10 μM zinc sulfate; one-site fit

Sequence of E6AP AZUL (amino-terminal zinc-binding domain of ubiquitin E3a ligase), amino acids 24 to 87 (Q05086 24-87): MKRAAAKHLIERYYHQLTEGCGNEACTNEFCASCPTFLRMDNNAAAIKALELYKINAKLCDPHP

fold reduction of affinity against unphosphorylated hRpn10 322-366: 10 fold
Substance: E6AP AZUL (amino-terminal zinc-binding domain of ubiquitin E3a ligase), amino acids 24 to 87 (from UniProt Q05086 24-87) (domain or fragment)
